Data from patent publication US20030125257A1, “Assay for identifying beta secretase inhibitors” (priority 2001, published 2003).
Square brackets hold non-standard residues; d marks the D form. Ends that are not written are not given here. Sta = CC(C)C[C@H](N)[C@@H](O)CC(=O)O

Biological target: T1, purified BACE (Homo sapiens, UniProt P56817)
T1 construct: Pooled fractions containing full-length BACE were passed over a 5 ml HiTrap Q column; 6xHis (C); made in house; host or cells: Sf9 insect cells (recombinant baculovirus, pFASTBAC1)
T1 sequence (P56817 46-501): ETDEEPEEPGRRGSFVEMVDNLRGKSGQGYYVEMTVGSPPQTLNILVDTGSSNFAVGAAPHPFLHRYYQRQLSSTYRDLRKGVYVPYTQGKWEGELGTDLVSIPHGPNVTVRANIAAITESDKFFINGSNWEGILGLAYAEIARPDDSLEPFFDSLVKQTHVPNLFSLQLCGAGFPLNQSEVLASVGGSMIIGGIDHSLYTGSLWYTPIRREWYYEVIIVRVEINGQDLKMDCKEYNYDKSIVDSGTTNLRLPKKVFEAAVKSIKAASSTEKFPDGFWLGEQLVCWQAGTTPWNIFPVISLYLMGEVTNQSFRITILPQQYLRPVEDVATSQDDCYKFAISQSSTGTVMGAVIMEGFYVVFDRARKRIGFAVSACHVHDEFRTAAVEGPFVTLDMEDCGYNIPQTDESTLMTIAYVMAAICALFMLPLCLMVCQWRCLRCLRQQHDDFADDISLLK
Test: Competitive radioligand binding assay (RLBA)
Conditions: binding to purified BACE as in example 6, FIG. 4
Experimental: 96 well microplates (Optiplate Packard) are coated with purified BACE protein using a concentration of 1 μg/ml in 30 mM sodium citrate buffer adjusted to pH 5.5. The coating is achieved by incubation of 100 μl/well for 1-3 days at 4° C. The plate is then washed with 2×300 μl/well of 10 mM citrate pH 4.1. To each well 100 μl binding buffer (30 mM citrate, 100 mM NaCl, 0.1% BSA, pH 4.1) is dispensed. The test compound (peptide H-4848 in FIGS. 4A and B) is added in 5 μl from a DMSO stock solution or appropriate dilutions. To this the tracer (tritiated Compound A) is added in 10 μl/well from a 10 μCi/ml stock solution in binding buffer. After incubation for 1.5-2 hours in a humid chamber at ambient temperature the plate is washed with 2×300 μl/well water and flipped on a dry towel. Following the addition of 50 μl/well MicroScint20 (Packard) the plate is sealed and vibrated for 5 seconds. The bound radioactivity is counted on a Topcount (Packard). Total binding is typically between 2000 and 10000 cpm/well depending mainly on the purity and concentration of the BACE protein. Non-specific binding as assessed by competition with >1 μM peptide H-4848 (Bachem #H-4848) is typically between 30 and 300 cpm/well. The IC-50 values are calculated by Microsoft Excel FIT.

tritiated compound A: Compound A with iodine exchanged for 3H by reduction on palladium; tracer of the binding assay (EVN[Sta]VAE[Tyr(3H2)]-NH2)
equilibrium binding isotherm (Scatchart analysis): single binding site isotherm
